What follows are sequences tested on Escherichia coli TOP10 (assay: shrunken log2 fold change of peptide-encoding DNA abundance (4.5 h post-induction vs induction); higher = less antimicrobial activity (less host growth inhibition)). Details: time post-induction: 4.5 h; library: site-saturation at positions 5, 18, 19, 20.
With RRIRLRPPRLPRPRPRPDNWPRP the “shrunken log2 fold change” value was -0.0493. In the case of RRIRRRPPRLPRPRPRPQVYPRP, the “shrunken log2 fold change” value is reported as -0.0473. In the case of RRIRVRPPRLPRPRPRPYFQPRP, the “shrunken log2 fold change” value is reported as -0.649. With RRIRFRPPRLPRPRPRPQTAPRP the “shrunken log2 fold change” value was -0.337. RRIRLRPPRLPRPRPRPFTQPRP was tested, and the “shrunken log2 fold change” value was -0.337. In the case of RRIRNRPPRLPRPRPRPTCMPRP, the “shrunken log2 fold change” value is reported as 0.0558. With RRIRCRPPRLPRPRPRPCPIPRP the “shrunken log2 fold change” value was -0.52. With RRIRCRPPRLPRPRPRPTEHPRP the “shrunken log2 fold change” value was 0.00581. In the case of RRIRVRPPRLPRPRPRPFNLPRP, the “shrunken log2 fold change” value is reported as -0.103. With RRIRARPPRLPRPRPRPCHEPRP the “shrunken log2 fold change” value was -0.055. RRIRKRPPRLPRPRPRPGDGPRP was tested, and the “shrunken log2 fold change” value was 3.56. In the case of RRIRTRPPRLPRPRPRPTNRPRP, the “shrunken log2 fold change” value is reported as 0.0146. In the case of RRIRGRPPRLPRPRPRPGRKPRP, the “shrunken log2 fold change” value is reported as 0.747. In the case of RRIRPRPPRLPRPRPRPMYAPRP, the “shrunken log2 fold change” value is reported as -0.302. RRIRERPPRLPRPRPRPDKCPRP was tested, and the “shrunken log2 fold change” value was -0.121. In the case of RRIRVRPPRLPRPRPRPTWWPRP, the “shrunken log2 fold change” value is reported as 0.0544. For RRIRNRPPRLPRPRPRPHNWPRP, the “shrunken log2 fold change” value was -0.391. In the case of RRIRHRPPRLPRPRPRPIKSPRP, the “shrunken log2 fold change” value is reported as -0.0206. With RRIRSRPPRLPRPRPRPWTRPRP the “shrunken log2 fold change” value was 0.0569. RRIRARPPRLPRPRPRPKQEPRP was tested, and the “shrunken log2 fold change” value was 0.254. For RRIRHRPPRLPRPRPRPKYSPRP, the “shrunken log2 fold change” value was -0.489. For RRIRARPPRLPRPRPRPKIRPRP, the “shrunken log2 fold change” value was 0.379. In the case of RRIRKRPPRLPRPRPRPDHKPRP, the “shrunken log2 fold change” value is reported as -0.0248. RRIRRRPPRLPRPRPRPTMAPRP was tested, and the “shrunken log2 fold change” value was 0.392. In the case of RRIRQRPPRLPRPRPRPIHEPRP, the “shrunken log2 fold change” value is reported as -0.0182. With RRIRDRPPRLPRPRPRPCKQPRP the “shrunken log2 fold change” value was -0.00787. With RRIRGRPPRLPRPRPRPDAWPRP the “shrunken log2 fold change” value was 1.17. In the case of RRIRCRPPRLPRPRPRPYEQPRP, the “shrunken log2 fold change” value is reported as -0.435. In the case of RRIRCRPPRLPRPRPRPFHWPRP, the “shrunken log2 fold change” value is reported as -0.195. In the case of RRIRNRPPRLPRPRPRPISSPRP, the “shrunken log2 fold change” value is reported as -0.0365. In the case of RRIRHRPPRLPRPRPRPMQKPRP, the “shrunken log2 fold change” value is reported as -0.0124. With RRIRWRPPRLPRPRPRPVDQPRP the “shrunken log2 fold change” value was 0.168. In the case of RRIRQRPPRLPRPRPRPSCAPRP, the “shrunken log2 fold change” value is reported as -0.0664. For RRIRIRPPRLPRPRPRPCLPPRP, the “shrunken log2 fold change” value was -0.425. RRIRHRPPRLPRPRPRPTSMPRP was tested, and the “shrunken log2 fold change” value was -0.0792. RRIRCRPPRLPRPRPRPAIEPRP was tested, and the “shrunken log2 fold change” value was -0.384. With RRIRTRPPRLPRPRPRPNFMPRP the “shrunken log2 fold change” value was -0.401. For RRIRLRPPRLPRPRPRPHPRPRP, the “shrunken log2 fold change” value was 0.276. For RRIRTRPPRLPRPRPRPAEDPRP, the “shrunken log2 fold change” value was 0.17. In the case of RRIRTRPPRLPRPRPRPRYWPRP, the “shrunken log2 fold change” value is reported as -0.156. With RRIRLRPPRLPRPRPRPPMHPRP the “shrunken log2 fold change” value was 0.363. With RRIRDRPPRLPRPRPRPPHAPRP the “shrunken log2 fold change” value was 0.631. RRIRTRPPRLPRPRPRPQYYPRP was tested, and the “shrunken log2 fold change” value was -0.266. With RRIRGRPPRLPRPRPRPNMAPRP the “shrunken log2 fold change” value was 0.875. With RRIRCRPPRLPRPRPRPGKTPRP the “shrunken log2 fold change” value was 0.102. For RRIRVRPPRLPRPRPRPANHPRP, the “shrunken log2 fold change” value was -0.0489. With RRIRMRPPRLPRPRPRPSYEPRP the “shrunken log2 fold change” value was -0.293. With RRIRYRPPRLPRPRPRPPELPRP the “shrunken log2 fold change” value was 0.162. For RRIRDRPPRLPRPRPRPIRHPRP, the “shrunken log2 fold change” value was -0.0425. With RRIRHRPPRLPRPRPRPSIQPRP the “shrunken log2 fold change” value was -0.344. With RRIRYRPPRLPRPRPRPCIWPRP the “shrunken log2 fold change” value was -0.176. For RRIRNRPPRLPRPRPRPQPSPRP, the “shrunken log2 fold change” value was 0.186. In the case of RRIRRRPPRLPRPRPRPCLRPRP, the “shrunken log2 fold change” value is reported as -0.0202. In the case of RRIRTRPPRLPRPRPRPDTIPRP, the “shrunken log2 fold change” value is reported as -0.0386. In the case of RRIRFRPPRLPRPRPRPDKTPRP, the “shrunken log2 fold change” value is reported as -0.0318. For RRIRARPPRLPRPRPRPQVQPRP, the “shrunken log2 fold change” value was 0.0275. RRIRMRPPRLPRPRPRPMCMPRP was tested, and the “shrunken log2 fold change” value was -0.179. RRIRYRPPRLPRPRPRPPGVPRP was tested, and the “shrunken log2 fold change” value was 0.259. For RRIRVRPPRLPRPRPRPDARPRP, the “shrunken log2 fold change” value was 0.262. For RRIRLRPPRLPRPRPRPPDCPRP, the “shrunken log2 fold change” value was 0.0366. For RRIRWRPPRLPRPRPRPKMRPRP, the “shrunken log2 fold change” value was 1.25. For RRIRQRPPRLPRPRPRPVFTPRP, the “shrunken log2 fold change” value was -0.217. With RRIRNRPPRLPRPRPRPGNVPRP the “shrunken log2 fold change” value was -0.107. With RRIRVRPPRLPRPRPRPIFQPRP the “shrunken log2 fold change” value was -0.052. RRIRPRPPRLPRPRPRPCIFPRP was tested, and the “shrunken log2 fold change” value was -0.359. RRIRARPPRLPRPRPRPVGIPRP was tested, and the “shrunken log2 fold change” value was -0.102. In the case of RRIRNRPPRLPRPRPRPKMKPRP, the “shrunken log2 fold change” value is reported as -0.286. In the case of RRIRCRPPRLPRPRPRPHFYPRP, the “shrunken log2 fold change” value is reported as -0.305. For RRIRCRPPRLPRPRPRPQMKPRP, the “shrunken log2 fold change” value was -0.514. With RRIRRRPPRLPRPRPRPRSGPRP the “shrunken log2 fold change” value was 0.751. With RRIRSRPPRLPRPRPRPAFKPRP the “shrunken log2 fold change” value was -0.333. With RRIRDRPPRLPRPRPRPTVYPRP the “shrunken log2 fold change” value was 0.12. For RRIRVRPPRLPRPRPRPRREPRP, the “shrunken log2 fold change” value was 0.495. In the case of RRIRYRPPRLPRPRPRPCANPRP, the “shrunken log2 fold change” value is reported as -0.0013. With RRIRWRPPRLPRPRPRPIDSPRP the “shrunken log2 fold change” value was -0.0713.
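Also: peptides expressed intracellularly from a pBAD plasmid library in pooled LB shake-flask culture, induced with 0.3% L-arabinose, DNA abundance read by NGS, three biological replicates, DESeq2 with apeglm shrinkage.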
